From publication PMC6337131, “Kinetics and Predicted Structure of a Novel Xylose Reductase from Chaetomium thermophilum” (International Journal of Molecular Sciences, 2019)

Tests used:
[1] = substrate: NC(=O)C1=CN([C@@H]2O[C@H](COP(=O)(O)OP(=O)(O)OC[C@H]3O[C@@H](n4cnc5c(N)ncnc54)[C@H](O)[C@@H]3O)[C@@H](O)[C@H]2O)C=CC1; experiment: purified protein; assay type: biochemical, Thermochaetoides thermophila; conditions: 0.5 M D-xylose, 50 mM bis-tris pH 6.5, 30 °C, varied: cofactor
[2] = substrate: NC(=O)C1=CN([C@@H]2O[C@H](COP(=O)(O)OP(=O)(O)OC[C@H]3O[C@@H](n4cnc5c(N)ncnc54)[C@H](OP(=O)(O)O)[C@@H]3O)[C@@H](O)[C@H]2O)C=CC1; experiment: purified protein; assay type: biochemical, Thermochaetoides thermophila; conditions: 0.5 M D-xylose, 50 mM bis-tris pH 6.5, 30 °C, varied: cofactor

B1: CtXR; xylose reductase from Chaetomium thermophilum (Thermochaetoides thermophila DSM 1495) (protein)
chain: MAPQIPNIKLSSGYDMPQVGFGLWKVDRSICADVVYNAIKIGYRLFDGACDYGNEVEAGQGIARAIKEGIVKREELFIVSKLWNTFHDGDKVEPIVRKQLADWGIDYFDLYLVHFPVALEYVDPSVRYPPGWFYDGEKEIRPSKATIQETWTAMESLVEKGLARSIGVSNFQAQLLYDLLRYAKIRPATLQIEHHPFLVQQELLNLAKAEGIAVTAYSSFGPQSFLEFNMKHAVQLTPLFEDETIKKIAAKYNRPASQVLLRWATQRGLAIIPKSTRPEIMKSNLESIEFDLSEEDIATISAFDRGLRFNQPTNYFPTEHLWIFG
notes: full-length ORF, codon optimized, pET28a, C-terminal His6 tag kept, E. coli BL21(DE3), IMAC and SEC; theoretical mass 39,244 Da; oligomer not determined (XRs commonly dimers)
[1]
  Km: 119 ± 6 µM
  kcat: 3.2 ± 0.1 s⁻¹
  kcat/Km: 26700 ± 1670 M⁻¹ s⁻¹
[2]
  Km: 135 ± 44 µM
  kcat: 11.4 ± 1.1 s⁻¹
  kcat/Km: 85000 ± 28300 M⁻¹ s⁻¹
